In this assay the target is human prolactin receptor (hPRLR) expressed on mouse BaF3 cells (BaF3/hPRLR cells) (human) (UniProt P16471). In words: cell-based or functional assay.
human prolactin receptor (hPRLR) expressed on mouse BaF3 cells (BaF3/hPRLR cells) (human), sequence (P16471 25-622): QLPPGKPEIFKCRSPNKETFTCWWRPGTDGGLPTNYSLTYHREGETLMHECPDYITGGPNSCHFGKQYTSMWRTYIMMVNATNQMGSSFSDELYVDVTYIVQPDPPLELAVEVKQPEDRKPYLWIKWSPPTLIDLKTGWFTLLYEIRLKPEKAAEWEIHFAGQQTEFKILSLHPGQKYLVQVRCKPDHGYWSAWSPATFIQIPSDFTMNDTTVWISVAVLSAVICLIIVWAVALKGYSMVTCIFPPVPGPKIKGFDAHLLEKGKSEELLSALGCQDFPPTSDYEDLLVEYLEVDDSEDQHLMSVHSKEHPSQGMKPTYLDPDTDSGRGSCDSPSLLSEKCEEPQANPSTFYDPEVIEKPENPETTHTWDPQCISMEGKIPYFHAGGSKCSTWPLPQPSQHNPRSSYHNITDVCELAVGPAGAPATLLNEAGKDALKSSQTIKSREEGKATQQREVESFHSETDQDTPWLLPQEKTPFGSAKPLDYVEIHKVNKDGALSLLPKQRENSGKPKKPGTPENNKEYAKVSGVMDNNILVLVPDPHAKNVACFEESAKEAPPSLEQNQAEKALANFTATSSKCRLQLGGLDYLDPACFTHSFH

In turn, “human prolactin (hPRL, R&D System Inc.) (from UniProt P01236 29-227) (ligand)” returned an EC50, growth of BaF3/hPRLR cells (positive control) of 2.1 pM.
